# Measurements from patent publication US20160297884A1 (Pfizer, published 2016).
# Numbering of substitutions follows the chain as printed.
# T1: Human BCMA (human, UniProt Q02223 1-54, limits assumed)
# T1 construct: Soluble analyte in SPR; construct not described; also called huBCMA; B-cell maturation antigen
# T1 sequence (looked up): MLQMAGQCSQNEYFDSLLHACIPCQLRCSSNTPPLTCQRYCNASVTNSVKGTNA
# T2: Human BCMA (human, UniProt Q02223 1-54, limits assumed)
# T2 construct: also called huBCMA; B-cell maturation antigen
# T2 sequence (looked up): T1 sequence (looked up)
# B1: L3.PY/L3.KY/H3.YA (antibody, V domains shown)
# VH: EVQLLESGGGLVQPGGSLRLSCAASGFTFGSYAMTWVRQAPGKGLEWVSAISGSGGNTFYADSVKGRFTISRDNSKNTLYLQMNSLRAEDTAVYYCARVSPIYAGMDYWGQGTLVTVSS
# VL: EIVLTQSPGTLSLSPGERATLSCRASQSVSSSYLAWYQQKPGQAPRLLIYGASSRATGIPDRFSGSGSGTDFTLTISRLEPEDFAVYYCKYYPYPPSFTFGQGTKVEIK
# notes: IgG
# B2: COMBO_Rd4_0.6nM_C21 (antibody, V domains shown)
# VH: EVQLLESGGGLVQPGGSLRLSCAASGFTFSSYPMSWVRQAPGKGLEWVSAIGGSGGSLPYADSVKGRFTISRDNSKNTLYLQMNSLRAEDTAVYYCARYWPMDSWGQGTLVTVSS
# VL: EIVLTQSPGTLSLSPGERATLSCRASQSVSSSYLAWYQQKPGQAPRLLMYDASIRATGIPDRFSGSGSGTDFTLTISRLEPEDFAVYYCQQYQSWPLTFGQGTKVEIK
# notes: IgG
# B3: A02_Rd4_0.6nM_C06 (antibody, V domains shown)
# VH: B2 VH with P33A, S35N, G52S, G53D, L58A, P59W, D103S, S104L
# VL: B2 VL with S31V, S32L, S94R
# notes: IgG
# B4: A02_Rd4_0.6nM_C09 (antibody, V domains shown)
# VH: B2 VH with P33A, S35N, G52S, G53D, L58M, P59W, D103S, S104L
# VL: B2 VL
# notes: IgG
# B5: A02_Rd4_6nM_C07 (antibody, V domains shown)
# VH: B2 VH with P33A, S35N
# VL: B2 VL with S31P, S32Y, Q93E, S94R
# notes: IgG
# B6: C01_Rd4_0.6nM_C09 (antibody, V domains shown)
# VH: B2 VH
# VL: B2 VL with S32L, Y33F, M49I, I54S, T57P, Q93S, S94A
# notes: IgG
# B7: A02_Rd4_6nM_C22 (antibody, V domains shown)
# VH: B2 VH with P33A, S35N, I51V, G52L, G53D, L58T, P59Y, D103T, S104P
# VL: B2 VL with S94V
# notes: IgG
# B8: A02_Rd4_0.6nM_C13 (antibody, V domains shown)
# VH: B2 VH with P33A, S35N, G52S, G53D, S57Y, L58R, P59Y, D103S, S104L
# VL: B2 VL with L34W, Q93E
# notes: IgG
# B9: A02_Rd4_0.6nM_C01 (antibody, V domains shown)
# VH: B2 VH with P33A, S35N, G52L, G53S, L58T, P59Y, S104I
# VL: B2 VL with A25G, S26G
# notes: IgG; also called P5AC1
# B10: A02_Rd4_6nM_C03 (antibody, V domains shown)
# VH: B2 VH with P33A, S35N, G52S, G53D, L58T, P59Y, S104I
# VL: B2 VL with S31N, S32L, S94G
# notes: IgG
# B11: A02_Rd4_6nM_C10 (antibody, V domains shown)
# VH: B2 VH with P33A, S35N, G52S, G53D, L58C, P59W, D103T, S104P
# VL: B2 VL with S30E, S31M, Q93A, S94H
# notes: IgG
# B12: A02_Rd4_6nM_C04 (antibody, V domains shown)
# VH: B2 VH with P33A, S35N, G52M, G53S, S57P, P59Y, D103A, S104L
# VL: B2 VL with S31A, S32L, S94V
# notes: IgG
# B13: C01_Rd4_0.6nM_C06 (antibody, V domains shown)
# VH: B2 VH
# VL: B2 VL with Q27E, S28A, S30P, S32T, M49I, I54S, T57P, Q93S, S94A, W95F
# notes: IgG
# B14: A02_Rd4_6nM_C05 (antibody, V domains shown)
# VH: B2 VH with P33A, S35N, G52F, G53A, L58T, P59Y, D103T, S104P
# VL: B2 VL with S94R
# notes: IgG
# B15: C01_Rd4_0.6nM_C03 (antibody, V domains shown)
# VH: B2 VH
# VL: B2 VL with Q27C, S28D, S32T, M49I, I54S, T57P, Q93M, S94R, W95S
# notes: IgG
# B16: A02_Rd4_6nM_C16 (antibody, V domains shown)
# VH: B2 VH with P33A, S35N, G52S, G53D, S54F, L58T, P59Y, S104I
# VL: B2 VL with S31D, S32L, S94T
# notes: IgG; also called P5AC16
# B17: A02_Rd4_6nM_C26 (antibody, V domains shown)
# VH: B2 VH with P33A, S35N, G52S, G53D, L58T, P59Y, D103S, S104L
# VL: B2 VL with S32L, S94V
# notes: IgG
# B18: A02_Rd4_0.6nM_C10 (antibody, V domains shown)
# VH: B2 VH with P33A, S35N, G52S, S54W
# VL: B2 VL with S31A, S32Q, S94R
# notes: IgG
# B19: A02_Rd4_0.6nM_C03 (antibody, V domains shown)
# VH: B2 VH with P33A, S35N, G52S, G53D, L58K, P59W, D103S, S104L
# VL: B2 VL with Q93F, S94T
# notes: IgG
# B20: A02_Rd4_6nM_C23 (antibody, V domains shown)
# VH: B2 VH with P33A, S35N, G52S, G53D, L58G, P59W, D103S, S104L
# VL: B2 VL with S31V, S32E, Q93A, S94R
# notes: IgG
# B21: A02_Rd4_0.6nM_C26 (antibody, V domains shown)
# VH: B2 VH with P33A, S35N, G52L, G53M, L58T, P59Y, D103S, S104L
# VL: B2 VL with R24G, A25P
# notes: IgG
# B22: A02_Rd4_6nM_C08 (antibody, V domains shown)
# VH: B2 VH with P33A, S35N, G52L, G53D, L58T, P59Y, D103S, S104P
# VL: B2 VL with S31F, S32L, Q93G
# notes: IgG
# B23: A02_Rd4_6nM_C01 (antibody, V domains shown)
# VH: B2 VH with P33A, S35N, G52T, G53A, L58T, P59Y, D103S, S104L
# VL: B2 VL with S31A, S32Y, Q93E, S94R
# notes: IgG
# B24: A02_Rd4_6nM_C19 (antibody, V domains shown)
# VH: B2 VH with P33A, S35N, G52S, G53D, L58R, P59W, D103S, S104D
# VL: B2 VL with S31V, S32L, Q93L, S94A
# notes: IgG
# B25: A02_Rd4_6nM_C25 (antibody, V domains shown)
# VH: B2 VH with P33A, S35N, G52S, G53D, L58R, P59W, D103T, S104P
# VL: B2 VL with Q93L, S94D
# notes: IgG
# Target: T1, Human BCMA
# Experiment: SPR, IgG immobilised, 37 C
# Description: (§1) All experiments were performed on a Bio-Rad Proteon XPR36 surface Plasmon resonance biosensor (Bio-Rad, Hercules, Calif.). […] The analysis temperature for the immobilization was 25° C. and the running buffer was HBS-T+(10 mM HEPES, 150 mM NaCl, 0.05% Tween-20, pH 7.4). Channels were activated in the analyte (horizontal) direction by injecting a mixture of 1 mM ECD and 0.25 mM NHS for 3 minutes at a flow rate of 30 μL/min. IgGs were immobilized on the activated spots by injecting them in the ligand (vertical) direction at 20 μg/mL in 10 mM Acetate pH 4.5 buffer for 1.5 minutes at […]. The activated surfaces were blocked by injecting 1M ethanolamine, pH 8.5 in the analyte direction for 3 minutes at 30 μL/min.
# (§2) The analysis temperature for the BCMA binding analysis was 37° C. or 25° C. in a running buffer of HBS-T+, supplemented with 1 mg/mL BSA. A kinetic titration method was employed for the interaction analysis as described in Abdiche, et al. Human BCMA (huBCMA) or cynomolgus monkey BCMA (cyBCMA) analyte was injected in the analyte direction using a series of injections from low to high concentration. The concentrations used were 0.08 nM, 0.4 nM, 2 nM, 10 nM and 50 nM (a 5-membered series, with a 5-fold dilution factor and top concentration of 50 nM). The association time for a given analyte dilution was two minutes. Immediately after the 50 nM BCMA injection, dissociation was monitored for 2 hours.
# (§3) The sensorgrams were double-referenced and fit to a 1:1 Langmuir with mass transport kinetic titration model in BIAevaluation Software version 4.1.1 (GE Lifesciences, Piscataway, N.J.).
Binder,Kd,T ½,koff,kon
B1,0.28 nM,12.7 min,0.000912 s⁻¹,3.3e+06 M⁻¹ s⁻¹

# Target: T3, Cynomolgus monkey BCMA (cynomolgus monkey)
# T3 construct: Soluble analyte in SPR; also called cyBCMA; Cyno BCMA
# Experiment: SPR, IgG immobilised, cyno BCMA analyte
# Description: as §1, §2, §3
Binder,Kd,koff,kon
B2,0.084 nM,0.000304 s⁻¹,3.63e+06 M⁻¹ s⁻¹
B3,0.058 nM,0.000105 s⁻¹,1.81e+06 M⁻¹ s⁻¹
B4,0.082 nM,0.000174 s⁻¹,2.13e+06 M⁻¹ s⁻¹
B5,1.14 nM,0.000786 s⁻¹,691000 M⁻¹ s⁻¹
B6,1.77 nM,0.00936 s⁻¹,5.28e+06 M⁻¹ s⁻¹
B7,0.176 nM,0.000324 s⁻¹,1.84e+06 M⁻¹ s⁻¹
B8,0.56 nM,0.00128 s⁻¹,2.29e+06 M⁻¹ s⁻¹
B9,0.655 nM,0.00157 s⁻¹,2.39e+06 M⁻¹ s⁻¹
B10,0.158 nM,0.000185 s⁻¹,1.17e+06 M⁻¹ s⁻¹
B11,0.472 nM,0.000898 s⁻¹,1.9e+06 M⁻¹ s⁻¹
B12,0.381 nM,0.000831 s⁻¹,2.18e+06 M⁻¹ s⁻¹
B13,1.95 nM,0.0121 s⁻¹,6.22e+06 M⁻¹ s⁻¹
B14,0.95 nM,0.00129 s⁻¹,1.36e+06 M⁻¹ s⁻¹
B15,2.53 nM,0.0119 s⁻¹,4.72e+06 M⁻¹ s⁻¹
B16,0.118 nM,0.000158 s⁻¹,1.34e+06 M⁻¹ s⁻¹
B17,0.203 nM,0.000448 s⁻¹,2.21e+06 M⁻¹ s⁻¹
B18,1.84 nM,0.00163 s⁻¹,883000 M⁻¹ s⁻¹
B19,0.201 nM,0.000426 s⁻¹,2.12e+06 M⁻¹ s⁻¹
B20,0.157 nM,0.000414 s⁻¹,2.63e+06 M⁻¹ s⁻¹
B21,0.941 nM,0.00256 s⁻¹,2.71e+06 M⁻¹ s⁻¹
B22,5.07 nM,0.0113 s⁻¹,2.23e+06 M⁻¹ s⁻¹
B23,0.401 nM,0.000583 s⁻¹,1.45e+06 M⁻¹ s⁻¹
B24,0.26 nM,0.000661 s⁻¹,2.54e+06 M⁻¹ s⁻¹
B25,0.22 nM,0.00033 s⁻¹,1.5e+06 M⁻¹ s⁻¹

# Target: T2, Human BCMA
# Experiment: SPR, IgG immobilised, human BCMA analyte
# Description: as §1, §2, §3
Binder,Kd,koff,kon
B2,0.009 nM,0.000115 s⁻¹,1.34e+07 M⁻¹ s⁻¹
B3,0.021 nM,7.37e-05 s⁻¹,3.49e+06 M⁻¹ s⁻¹
B4,0.018 nM,9.75e-05 s⁻¹,5.5e+06 M⁻¹ s⁻¹
B5,0.128 nM,0.000189 s⁻¹,1.48e+06 M⁻¹ s⁻¹
B6,0.545 nM,0.00825 s⁻¹,1.51e+07 M⁻¹ s⁻¹
B7,0.054 nM,0.000182 s⁻¹,3.38e+06 M⁻¹ s⁻¹
B8,0.066 nM,0.000566 s⁻¹,8.53e+06 M⁻¹ s⁻¹
B9,0.193 nM,0.000915 s⁻¹,4.74e+06 M⁻¹ s⁻¹
B10,0.075 nM,0.000126 s⁻¹,1.69e+06 M⁻¹ s⁻¹
B11,0.07 nM,0.000315 s⁻¹,4.51e+06 M⁻¹ s⁻¹
B12,0.135 nM,0.000603 s⁻¹,4.47e+06 M⁻¹ s⁻¹
B13,0.847 nM,0.0154 s⁻¹,1.82e+07 M⁻¹ s⁻¹
B14,0.099 nM,0.000308 s⁻¹,3.1e+06 M⁻¹ s⁻¹
B15,0.964 nM,0.015 s⁻¹,1.55e+07 M⁻¹ s⁻¹
B16,0.09 nM,0.000141 s⁻¹,1.56e+06 M⁻¹ s⁻¹
B17,0.033 nM,0.000139 s⁻¹,4.26e+06 M⁻¹ s⁻¹
B18,0.129 nM,0.000296 s⁻¹,2.3e+06 M⁻¹ s⁻¹
B19,0.043 nM,0.000182 s⁻¹,4.27e+06 M⁻¹ s⁻¹
B20,0.021 nM,0.000255 s⁻¹,1.22e+07 M⁻¹ s⁻¹
B21,0.061 nM,0.000443 s⁻¹,7.26e+06 M⁻¹ s⁻¹
B22,0.188 nM,0.000738 s⁻¹,3.92e+06 M⁻¹ s⁻¹
B23,0.03 nM,9.2e-05 s⁻¹,3.11e+06 M⁻¹ s⁻¹
B24,0.049 nM,0.000148 s⁻¹,3e+06 M⁻¹ s⁻¹
B25,0.065 nM,0.00018 s⁻¹,2.75e+06 M⁻¹ s⁻¹
